According to patent US10052364B2, “Osteocalcin as a treatment for cognitive disorders” (THE TRUSTEES OF COLUMBIA UNIVERSITY IN THE CITY OF NEW YORK, priority 2013, dated 2018):

Key:
[1] = Blood brain barrier crossing: subcutaneous osteocalcin infusion, content measured in blood, bone and parts of the brain by ELISA; format: in vivo, mouse; conditions: subcutaneous pump, uncarboxylated osteocalcin 50 ng/hour, seven days, three-month-old Osteocalcin-/- mice
Protocol: FIG. 3. Osteocalcin binds to neurons in the brain. (A) Measurement of the total osteocalcin in 3 month-old Osteocalcin^−/− mice infused subcutaneously for 7 days with either uncarboxylated osteocalcin (300 ng/hour, right panel) or PBS (left panel). Osteocalcin levels were measured in bone, serum, and different parts of the brain (cortex, midbrain, hypothalamus, brainstem, and cerebellum). (B) Subcutaneous infusion of leptin ([…], right panel) or PBS (left panel) for 7 days in ob/ob mice. Leptin levels were measured in serum, cortex, midbrain, hypothalamus, brainstem, and cerebellum. […]
Osteocalcin^−/−, Gprc6a^−/−, Osteocalcin-mCherry, and Osteocalcin floxed mice have been previously described (Ducy et al., 1996, Nature 382:448-452; Oury et al., 2011, Cell 144:796-809). Mouse genotypes were determined by PCR. […] Leptin and osteocalcin content in sera and tissues were determined by ELISA.
To understand how this behavioral phenotype develops, whether osteocalcin crosses the blood brain barrier (BBB) was tested by installing pumps that subcutaneously delivered vehicle or uncarboxylated osteocalcin (50 ng/hour) in three-month-old Osteocalcin^−/− mice. […] Seven days later, osteocalcin and leptin content were measured in blood, bone, and in various parts of the brain in Osteocalcin−/− and ob/ob mice, respectively. […]

Osteocalcin-/- mice = assay: Intracerebro-ventricular (ICV) infusion in Osteocalcin-/- mice, behavioral tests; format: in vivo, mouse
Protocol: FIG. 4. Administration of osteocalcin prevents anxiety and depression. (A-E) Behavioral analyses of adult Osteocalcin^−/− mice receiving osteocalcin through intracerebro-ventricular (ICV) infusions. (A) Light and Dark test, (B) Elevated plus maze test, (C) Open field test, (D) Forced swim test, and (E) Tail suspension test performed in a cohort of WT (n=7) and Osteocalcin^−/− infused with vehicle or osteocalcin (10 ng/hour). In each set of three bars, the rightmost bar represents the results following administration of osteocalcin.
Osteocalcin^−/−, Gprc6a^−/−, Osteocalcin-mCherry, and Osteocalcin floxed mice have been previously described (Ducy et al., 1996, Nature 382:448-452; Oury et al., 2011, Cell 144:796-809). Mouse genotypes were determined by PCR. For all experiments, controls were littermate female WT, Cre-expressing, or flox/flox. All mice were maintained on a pure 129-Sv genetic background except for the inducible deletion Osteocalcin model (mix background: 25% C57/BL6 and 75% 129sv). […] Leptin and osteocalcin content in sera and tissues were determined by ELISA.
Tail suspension testing was performed as previously described (Mayorga et al., 2001, J. Pharmacology Exper. Therapeutics 298:1101-1107; Stem et al., 1985, Psychopharmacology 85:367-370). […] The parameter recorded was the number of seconds spent immobile. Mice were scored by a highly trained observer, over a 5 min period, blind to the genotype of the mice.
Anxiety and locomotor activity of mice were measured using the open field test (David et al., 2009, Neuron 62:479-493). […] Mice were monitored throughout each test session by video tracking and analyzed using Matlab software. […] The overall motor activity was quantified as the total distance travelled. The anxiety was quantified measuring the number of rearings and the time and distance spent in the center versus periphery of the open field chamber (in %).
Each mouse was allowed to explore the apparatus for 5 min. Global activity was assessed by measuring the number of entries […] (David et al, 2009, Neuron 62:479-493). […]

B1: uncarboxylated osteocalcin: Recombinant osteocalcin bacterially produced, cleaved from the GST subunit; completely undercarboxylated at all three sites (protein, listed as Homo sapiens)
chain: MRALTLLALLALAALCIAGQAGAKPSGAESSKGAAFVSKQEGSEVVKRPRRYLYQWLGAPVPYPDPLEPRREVCELNPDCDELADHIGFQEAYRRFYGPV
modifications: uncarboxylated
notes: Recombinant osteocalcin bacterially produced, cleaved from the GST subunit; completely undercarboxylated at all three sites
osteocalcin concentration in brainstem, thalamus and hypothalamus relative to that observed in serum [1]: ~50% | leakage of centrally delivered hormone into the general circulation (osteocalcin in blood) (Osteocalcin-/- mice; ICV 10 ng/hour, infused Osteocalcin-/- mice): no leakage | anxiety and depression features (DLT, EPMT, OFT, FST, TST) (Osteocalcin-/- mice; ICV 10 ng/hour, week-long treatment, Osteocalcin-/- mice): corrected the anxiety and depression features | defects in anxiety, depression, learning, and memory (Osteocalcin-/- mice; direct administration to the brains of adult Osteocalcin-/- mice): rescued defects in anxiety, depression, learning, and memory
